Assays:
[1] = target: T1, Venus-tagged Gβ3γ9, P16520;O14610; experiment: BRET-based Gβ3γ9 displacement assay (competition with GαoG92-NLuc); details: chain shown with the change; n = 3; parent: est. 100; read off a plot
T1 chain 1: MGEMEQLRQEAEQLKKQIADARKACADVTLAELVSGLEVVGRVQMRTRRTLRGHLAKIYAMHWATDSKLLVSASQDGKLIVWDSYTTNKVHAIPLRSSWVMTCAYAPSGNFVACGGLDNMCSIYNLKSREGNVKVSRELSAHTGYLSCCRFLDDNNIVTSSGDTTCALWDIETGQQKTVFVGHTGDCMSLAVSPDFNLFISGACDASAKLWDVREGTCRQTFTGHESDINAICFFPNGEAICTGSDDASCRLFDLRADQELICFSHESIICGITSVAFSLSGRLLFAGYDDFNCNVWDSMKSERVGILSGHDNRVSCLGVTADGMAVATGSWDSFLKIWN
T1 chain 2: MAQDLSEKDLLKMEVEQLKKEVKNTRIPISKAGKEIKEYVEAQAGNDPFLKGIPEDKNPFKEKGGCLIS

[2] = target: GFP-Gβ1γ3 (GFP-tagged Gβ1 and GFP-tagged Gγ3), P62873;P63215; experiment: co-immunoprecipitation (GFP nanobody IP, Western blot quantification); details: chain shown with the change; HEK293T cells; n = 4; parent: est. 1.0; read off a plot
GFP-Gβ1γ3 (GFP-tagged Gβ1 and GFP-tagged Gγ3), P62873;P63215, sequence (chain, as listed by the source, chain 1 of 2): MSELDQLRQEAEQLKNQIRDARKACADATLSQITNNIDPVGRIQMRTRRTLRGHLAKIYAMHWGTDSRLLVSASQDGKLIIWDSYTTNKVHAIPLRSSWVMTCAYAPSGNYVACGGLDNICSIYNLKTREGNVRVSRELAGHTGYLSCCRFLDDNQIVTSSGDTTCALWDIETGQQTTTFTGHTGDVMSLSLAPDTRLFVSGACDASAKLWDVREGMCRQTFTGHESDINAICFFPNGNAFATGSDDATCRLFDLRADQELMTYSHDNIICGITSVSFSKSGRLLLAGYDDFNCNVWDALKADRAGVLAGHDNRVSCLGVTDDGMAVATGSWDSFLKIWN
GFP-Gβ1γ3 (GFP-tagged Gβ1 and GFP-tagged Gγ3), P62873;P63215, sequence (chain, as listed by the source, chain 2 of 2): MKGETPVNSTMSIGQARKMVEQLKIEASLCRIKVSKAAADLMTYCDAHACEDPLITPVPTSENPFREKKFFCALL

[3] = target: T2, GFP-Ric8A, Q9NPQ8; experiment: as above; details: chain shown with the change; HEK293T cells; n = 4; parent: est. 1.0; read off a plot
T2 chain: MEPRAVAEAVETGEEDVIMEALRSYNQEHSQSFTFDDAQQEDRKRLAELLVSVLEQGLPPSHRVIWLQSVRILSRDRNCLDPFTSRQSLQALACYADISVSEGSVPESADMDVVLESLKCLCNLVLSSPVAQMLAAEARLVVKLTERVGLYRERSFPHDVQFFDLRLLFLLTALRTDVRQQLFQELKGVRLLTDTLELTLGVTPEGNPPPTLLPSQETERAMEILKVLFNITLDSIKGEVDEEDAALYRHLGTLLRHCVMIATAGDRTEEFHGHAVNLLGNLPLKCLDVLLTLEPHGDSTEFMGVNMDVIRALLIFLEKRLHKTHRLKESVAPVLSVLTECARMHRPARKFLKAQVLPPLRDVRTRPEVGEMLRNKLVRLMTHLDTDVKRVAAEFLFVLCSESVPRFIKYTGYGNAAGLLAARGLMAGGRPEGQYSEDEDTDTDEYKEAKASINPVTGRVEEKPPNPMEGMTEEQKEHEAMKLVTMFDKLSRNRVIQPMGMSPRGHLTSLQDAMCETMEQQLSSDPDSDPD

B1: Gαo wild-type (non-tagged), P09471-1 L39_G40insV (protein)
chain: MGCTLSAEERAALERSKAIEKNLKEDGISAAKDVKLLLLVGAGESGKSTIVKQMKIIHEDGFSGEDVKQYKPVVYSNTIQSLAAIVRAMDTLGIEYGDKERKADAKMVCDVVSRMEDTEPFSAELLSAMMRLWGDSGIQECFNRSREYQLNDSAKYYLDSLDRIGAADYQPTEQDILRTRVKTTGIVETHFTFKNLHFRLFDVGGQRSERKKWIHCFEDVTAIIFCVALSGYDQVLHEDETTNRMHESLMLFDSICNNKFFIDTSIILFLNKKDLFGEKIKKSPLTICFPEYTGPNTYEDAAAYIQAQFESKNRSPNKEIYCHMTCATDTNNIQVVFDAVTDIIIANNLRGCGLY
percent of parent (% of Gαo wild-type) [1]: 30
ratio to parent (folds over Gαo wild-type) [2]: 0.29
ratio to parent (folds over Gαo wild-type) [3]: 6.2

From article PMC12781765
